Source: publication doi:10.1101/2021.09.27.461913v1

Test system: O=c1[nH]c(=O)c2[nH]cnc2[nH]1
Test: cells, lysate or membranes
Details: labelled compound

UapA (Aspergillus nidulans FGSC A4)
Km: 6 ± 2 µM
